Source: US20140308307A1 (University of Texas, published 2014)

Molecular target: the molecule itself
Test: X-ray crystal structure of the complex

B1: P94S mutant F2F3 fragment of human CPSF30 (variant used in the X-ray crystal structure determination) (other)
chain: SGEKTVVCKHWLRGLCKKGDQCEFLHEYDMTKMSECYFYSKFGECSNKECPFLHIDPESKI
notes: also called F2F3 with Ser in place of Pro at position 94; F2F3-A; not shown: N-terminal hexaHis tag
B1: binds.
